One block for each substance: values may come before it.
Legend:
Experiment in all cases: SEC + other: dynamic light scattering
[1] = target: G. stearothermophilus GerD Q122A (Geobacillus stearothermophilus)
[2] = target: G. stearothermophilus GerD M138P (Geobacillus stearothermophilus)
[3] = target: G. stearothermophilus GerD R148A (Geobacillus stearothermophilus)
[4] = target: G. stearothermophilus GerD ΔH01-02 (Geobacillus stearothermophilus)
[5] = target: G. stearothermophilus GerD ΔH5-8 (Geobacillus stearothermophilus)
[6] = target: G. stearothermophilus GerD D118A (Geobacillus stearothermophilus)
[7] = target: G. stearothermophilus GerD F86P (Geobacillus stearothermophilus)
[8] = target: G. stearothermophilus GerD M111P (Geobacillus stearothermophilus)
[9] = target: G. stearothermophilus GerD M36P (Geobacillus stearothermophilus)
[10] = target: G. stearothermophilus GerD ΔH6-8 (Geobacillus stearothermophilus)

stoichiometry N [2]: 3
Substance: G. stearothermophilus GerD M138P (from UniProt A0ACH1E844 1-195) (natural protein)

stoichiometry N [4]: 3
Substance: G. stearothermophilus GerD ΔH01-02 (from UniProt A0ACH1E844 60-180) (domain or fragment)

stoichiometry N [7]: 3
Substance: G. stearothermophilus GerD F86P (from UniProt A0ACH1E844 1-195) (natural protein)

stoichiometry N [10]: 3
Substance: G. stearothermophilus GerD ΔH6-8 (from UniProt A0ACH1E844 1-133) (domain or fragment)

Further lines, the substance ahead of its results:

Substance: G. stearothermophilus GerD Q122A (from UniProt A0ACH1E844 1-195) (natural protein)
stoichiometry N [1]: 3

Substance: G. stearothermophilus GerD R148A (from UniProt A0ACH1E844 1-195) (natural protein)
stoichiometry N [3]: 3

Substance: G. stearothermophilus GerD ΔH5-8 (from UniProt A0ACH1E844 1-120) (domain or fragment)
stoichiometry N [5]: 3

Substance: G. stearothermophilus GerD D118A (from UniProt A0ACH1E844 1-195) (natural protein)
stoichiometry N [6]: 3

Substance: G. stearothermophilus GerD M111P (from UniProt A0ACH1E844 1-195) (natural protein)
stoichiometry N [8]: 3

Substance: G. stearothermophilus GerD M36P (from UniProt A0ACH1E844 1-195) (natural protein)
stoichiometry N [9]: 3
